These results are taken from article PMC9481538, “The interaction between LC8 and LCA5 reveals a novel oligomerization function of LC8 in the ciliary-centrosome system” (Scientific Reports, 2022).

Test [1] has as its target sLCA5-WT (LCA5 96-430 with N-terminal MBP and C-terminal 6xHis) (human (cDNA library from HEK293)) (UniProt Q86VQ0).
Test [2] has the same target. As to the kind of experiment: ITC; MBP-fused LCA5 construct in the cell, LC8 injected, 37 injections of 1 μl; 37 °C, PBS pH 7.4, 1 mM TCEP.
In test [3] the target is sLCA5-ΔCQS (human (cDNA library from HEK293)) (UniProt Q86VQ0). The test is described as above.
Chain of sLCA5-ΔCQS (human (cDNA library from HEK293)) (Q86VQ0 other isoform, or with tags, fused parts or gaps mutant): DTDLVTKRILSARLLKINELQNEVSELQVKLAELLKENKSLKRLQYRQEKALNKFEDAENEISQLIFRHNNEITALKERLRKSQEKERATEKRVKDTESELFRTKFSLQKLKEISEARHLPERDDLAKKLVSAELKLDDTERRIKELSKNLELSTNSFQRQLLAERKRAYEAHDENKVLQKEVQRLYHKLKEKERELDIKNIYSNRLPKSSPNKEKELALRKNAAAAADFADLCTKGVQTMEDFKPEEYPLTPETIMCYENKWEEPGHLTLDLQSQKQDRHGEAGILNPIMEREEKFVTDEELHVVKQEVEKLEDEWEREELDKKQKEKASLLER
Test [4] has as its target sLCA5-ΔVQT (human (cDNA library from HEK293)) (UniProt Q86VQ0). The test is described as above.
Test [5] deals with FITC-labelled BMF (Bcl-2-modifying factor) peptide (…). As to the kind of experiment: fluorescence polarisation; direct titration of 50 nM FITC-BMF peptide with LC8; 25 °C, PBS, 2 mM TCEP, 0.05% Brij.
Test [6] deals with Dynein light chain LC8 (DYNLL2), 6xHis-tagged (UniProt Q96FJ2). As to the kind of experiment: SEC; Superose 6 Increase 10/300, DPBS with 200 μM TCEP; LC8 or sLCA5-WT alone; masses estimated from a calibration curve.
Test [7] addresses sLCA5-WT (LCA5 96-430 with N-terminal MBP and C-terminal 6xHis) (human (cDNA library from HEK293)) (UniProt Q86VQ0). As to the kind of experiment: SEC; Superose 6 Increase 10/300, DPBS with 200 μM TCEP; 30 μM LCA5 construct with 150 μM LC8, injected immediately or after 60 min at 37 °C; fractions analysed by SDS-PAGE and densitometry.
Test [8] addresses sLCA5-ΔCQS (human (cDNA library from HEK293)) (UniProt Q86VQ0). The test is described as above.
Test [9] addresses sLCA5-ΔVQT (human (cDNA library from HEK293)) (UniProt Q86VQ0). The description is as above.

Chain of sLCA5-WT (LCA5 96-430 with N-terminal MBP and C-terminal 6xHis) (human (cDNA library from HEK293)) (Q86VQ0 96-430): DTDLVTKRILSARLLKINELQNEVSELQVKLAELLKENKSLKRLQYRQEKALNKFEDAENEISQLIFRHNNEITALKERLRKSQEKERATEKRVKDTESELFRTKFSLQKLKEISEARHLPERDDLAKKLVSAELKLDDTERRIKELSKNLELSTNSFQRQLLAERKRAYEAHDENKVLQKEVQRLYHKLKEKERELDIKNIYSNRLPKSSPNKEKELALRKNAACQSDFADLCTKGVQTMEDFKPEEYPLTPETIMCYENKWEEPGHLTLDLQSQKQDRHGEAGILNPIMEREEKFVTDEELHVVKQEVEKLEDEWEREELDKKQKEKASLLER
Chain of sLCA5-ΔVQT (human (cDNA library from HEK293)) (Q86VQ0 other isoform, or with tags, fused parts or gaps mutant): as the sequence (Q86VQ0 96-430) above, with V238A, Q239A, T240A counted along it
Chain of Dynein light chain LC8 (DYNLL2), 6xHis-tagged (from UniProt Q96FJ2 1-89) (natural protein) (Q96FJ2 whole entry): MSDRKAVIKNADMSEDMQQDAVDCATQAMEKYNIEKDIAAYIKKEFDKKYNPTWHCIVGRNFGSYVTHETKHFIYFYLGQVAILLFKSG

Substance “Dynein light chain LC8 (DYNLL2), 6xHis-tagged (from UniProt Q96FJ2 1-89) (natural protein)” gave an increase in the melting temperature of sLCA5-WT in complex with LC8 (CD thermal denaturation at 222 nm, 10-80 °C; 1.2 μM LCA5, 6 μM LC8) in test [1] of 5 °C. Moreover, the values for the dH in [2], in [3] and in test [4] were -11.8 kcal/mol, -8.62 kcal/mol and -12.5 kcal/mol, respectively. The stoichiometry N in test [2] is 1 LCA5:LC8; in test [3], 2 LCA5:LC8; in test [4], 2 LCA5:LC8; in [6], 2. The LC8 concentration at 80% saturation of the BMF peptide in test [5] was 12 µM. In addition, the results for the molar ratio LCA5:LC8 in the LCA5 peak in [7] and in test [8] were 1 LCA5:LC8 and 2 LCA5:LC8, respectively. Also, the molar ratio LCA5:LC8 in the intermediate fraction in test [7] is 1 LCA5:LC8. Moreover, the molar ratio sLCA5:LC8 in the oligomeric (void) fraction in [7] was 0.5 LCA5:LC8; in test [8], 1 LCA5:LC8. The molar ratio LCA5:LC8 in the earlier eluted part of the LCA5 peak in test [9] was 2 LCA5:LC8. In test [9], the molar ratio LCA5:LC8 in the later part of the LCA5 peak is 1 LCA5:LC8.
